{"source": "patent US20130115212A1", "about": "(LUNDBECK A S, published 2013)", "molecules": {"B1": {"name": "neuturin (neurturin) (ligand, UniProt Q99748 96-197, looked up)", "chain": "ARLGARPCGLRELEVRVSELGLGYASDETVLFRYCAGACEAAARVYDLGLRRLRQRRRLRRERVRAQPCCRPTAYEDEVSFLDAHSRYHTVHELSARECACV", "notes": "also called NRTN"}, "B2": {"name": "GDNFN-term propep (other, not shown: a dimerising Fc or GST; large carriers; small tags and cut ends)", "chain": "FPLPAGKRPPEAPAEDRSLGRRRAPFALSSDSNMPEDYPDQFDDVMDFIQATIKRLKRSPDKQMAVLPRRERNRQAAAANPENSRGKGRRGQRGKN", "notes": "also called GST fusion of the GDNF propeptide followed by the first 38 amino acids of mature GDNF"}, "B3": {"name": "artemin (ligand, UniProt Q5T4W7 108-220, looked up)", "chain": "AGGPGSRARAAGARGCRLRSQLVPVRALGLGHRSDELVRFRFCSGSCRRARSPHDLSLASLLGAGALRPPPGSRPVSQPCCRPTRYEAVSFMDVNSTWRTVDRLSATACGCLG", "notes": "also called ARTN"}, "B4": {"name": "persephin (ligand, UniProt O60542 61-156, looked up)", "chain": "ALSGPCQLWSLTLSVAELGLGYASEEKVIFRYCAGSCPRGARTQHGLALARLQGQGRAHGGPCCRPTRYTDVAFLDDRHRWQRLPQLSAAACGCGG", "notes": "also called PSPN"}, "B5": {"name": "SorLA propeptide (peptide)", "peptide": "EVWTQRLHGGSAPLPQDRGFLVVQGDPRELRLWARGDARGASRADEKPLRRKR"}, "B6": {"name": "GDNFpropep (other)", "fusion protein": "FPLPAGKRPPEAPAEDRSLGRRRAPFALSSDSNMPEDYPDQFDDVMDFIQATIKRLKR", "notes": "also called GST fusion of the GDNF propeptide"}, "B7": {"name": "GDNF propeptide (peptide)", "peptide": "B6 fusion protein"}, "B8": {"name": "Glia cell-derived neurotrophic factor (GDNF) (ligand)", "chain": "SPDKQMAVLPRRERNRQAAAANPENSRGKGRRGQRGKNRGCVLTAIHLNVTDLGLGYETKEELIFRYCSGSCDAAETTYDKILKNLSRNRRLVSDKVGQACCRPIAFDDDLSFLDDNLVYHILRKHSAKRCGCI", "notes": "also called mature GDNF"}, "B9": {"name": "GDNFN-term (other)", "chain": "SPDKQMAVLPRRERNRQAAAANPENSRGKGRRGQRGKN", "modifications": "also: GST fusion partner (letters not given here)", "notes": "also called GST fusion of the N-terminal 38 amino acids of mature GDNF; not shown: GST fusion partner and any linker to it"}, "B10": {"name": "peptide encompassing the first 38 amino acids of mature GDNF (peptide)", "peptide": "B9 chain", "notes": "also called N-terminal 38 amino acids of mature GDNF"}}, "key": {"[1]": {"target": "SorLA expressed on cells (stably transfected HEK293 cells; SY5Y neuroblastoma cells, endogenous or overexpressed) (Homo sapiens) (UniProt Q92673)", "sequence (Q92673 82-2214 limits assumed)": "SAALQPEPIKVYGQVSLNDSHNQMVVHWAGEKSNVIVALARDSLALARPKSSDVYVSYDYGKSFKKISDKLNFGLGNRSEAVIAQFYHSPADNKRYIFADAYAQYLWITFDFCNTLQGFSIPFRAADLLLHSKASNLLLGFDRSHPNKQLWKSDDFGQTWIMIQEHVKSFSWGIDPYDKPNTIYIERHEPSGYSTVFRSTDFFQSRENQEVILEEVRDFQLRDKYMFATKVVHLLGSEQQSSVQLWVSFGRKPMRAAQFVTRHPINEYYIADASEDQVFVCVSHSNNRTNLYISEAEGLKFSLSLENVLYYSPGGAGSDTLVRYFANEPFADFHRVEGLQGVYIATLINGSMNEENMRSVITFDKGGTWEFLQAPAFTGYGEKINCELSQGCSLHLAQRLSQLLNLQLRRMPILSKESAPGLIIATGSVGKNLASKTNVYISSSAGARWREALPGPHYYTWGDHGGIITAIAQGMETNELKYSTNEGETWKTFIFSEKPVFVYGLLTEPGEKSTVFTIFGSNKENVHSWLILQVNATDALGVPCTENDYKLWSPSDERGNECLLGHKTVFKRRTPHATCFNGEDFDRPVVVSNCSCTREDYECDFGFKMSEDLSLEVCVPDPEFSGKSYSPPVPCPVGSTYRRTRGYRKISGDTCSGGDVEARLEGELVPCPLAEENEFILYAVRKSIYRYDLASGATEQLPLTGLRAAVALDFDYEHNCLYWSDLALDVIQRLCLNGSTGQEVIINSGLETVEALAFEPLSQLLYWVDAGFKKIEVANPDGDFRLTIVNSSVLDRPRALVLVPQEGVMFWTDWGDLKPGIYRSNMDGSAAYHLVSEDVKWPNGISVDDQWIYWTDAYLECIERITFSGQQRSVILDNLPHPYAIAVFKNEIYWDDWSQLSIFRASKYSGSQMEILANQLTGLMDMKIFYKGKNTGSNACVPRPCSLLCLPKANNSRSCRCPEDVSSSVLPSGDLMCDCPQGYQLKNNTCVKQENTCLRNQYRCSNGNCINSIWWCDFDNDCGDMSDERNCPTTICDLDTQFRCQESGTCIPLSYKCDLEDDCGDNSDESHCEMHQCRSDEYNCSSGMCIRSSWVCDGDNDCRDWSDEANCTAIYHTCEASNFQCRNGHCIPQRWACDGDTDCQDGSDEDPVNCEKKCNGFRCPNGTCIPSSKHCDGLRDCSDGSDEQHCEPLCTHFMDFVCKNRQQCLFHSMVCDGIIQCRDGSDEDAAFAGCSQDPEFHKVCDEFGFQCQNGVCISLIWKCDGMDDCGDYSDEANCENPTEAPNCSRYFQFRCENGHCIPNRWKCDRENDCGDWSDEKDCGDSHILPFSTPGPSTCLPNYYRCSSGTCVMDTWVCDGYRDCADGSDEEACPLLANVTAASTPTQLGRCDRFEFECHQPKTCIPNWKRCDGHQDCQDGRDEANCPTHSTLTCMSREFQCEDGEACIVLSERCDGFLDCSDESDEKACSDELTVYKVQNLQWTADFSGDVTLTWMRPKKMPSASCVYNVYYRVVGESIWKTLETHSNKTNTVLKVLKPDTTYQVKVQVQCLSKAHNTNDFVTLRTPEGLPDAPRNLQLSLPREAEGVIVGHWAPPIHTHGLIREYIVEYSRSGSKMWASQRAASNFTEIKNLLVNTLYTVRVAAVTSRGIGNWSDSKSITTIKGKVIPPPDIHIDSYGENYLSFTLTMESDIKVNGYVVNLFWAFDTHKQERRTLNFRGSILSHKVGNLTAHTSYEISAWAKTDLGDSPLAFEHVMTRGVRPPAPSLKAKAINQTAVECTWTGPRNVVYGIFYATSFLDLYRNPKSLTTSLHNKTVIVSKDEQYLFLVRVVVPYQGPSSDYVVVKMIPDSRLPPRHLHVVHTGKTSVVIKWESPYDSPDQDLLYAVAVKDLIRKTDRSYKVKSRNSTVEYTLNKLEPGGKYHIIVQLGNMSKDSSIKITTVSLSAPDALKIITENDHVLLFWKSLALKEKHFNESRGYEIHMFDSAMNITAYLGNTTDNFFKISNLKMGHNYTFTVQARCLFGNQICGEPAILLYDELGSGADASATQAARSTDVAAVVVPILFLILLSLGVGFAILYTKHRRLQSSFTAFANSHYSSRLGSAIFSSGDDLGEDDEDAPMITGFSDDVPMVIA", "experiment": "FRET on non-permeabilized fixed cells, SorLA acceptor, GFRα1 donor"}, "[2]": {"target": "SorLA extracellular domain (immobilized on the Biacore chip) (Homo sapiens) (UniProt Q92673)", "sequence (Q92673 82-2137 limits assumed)": "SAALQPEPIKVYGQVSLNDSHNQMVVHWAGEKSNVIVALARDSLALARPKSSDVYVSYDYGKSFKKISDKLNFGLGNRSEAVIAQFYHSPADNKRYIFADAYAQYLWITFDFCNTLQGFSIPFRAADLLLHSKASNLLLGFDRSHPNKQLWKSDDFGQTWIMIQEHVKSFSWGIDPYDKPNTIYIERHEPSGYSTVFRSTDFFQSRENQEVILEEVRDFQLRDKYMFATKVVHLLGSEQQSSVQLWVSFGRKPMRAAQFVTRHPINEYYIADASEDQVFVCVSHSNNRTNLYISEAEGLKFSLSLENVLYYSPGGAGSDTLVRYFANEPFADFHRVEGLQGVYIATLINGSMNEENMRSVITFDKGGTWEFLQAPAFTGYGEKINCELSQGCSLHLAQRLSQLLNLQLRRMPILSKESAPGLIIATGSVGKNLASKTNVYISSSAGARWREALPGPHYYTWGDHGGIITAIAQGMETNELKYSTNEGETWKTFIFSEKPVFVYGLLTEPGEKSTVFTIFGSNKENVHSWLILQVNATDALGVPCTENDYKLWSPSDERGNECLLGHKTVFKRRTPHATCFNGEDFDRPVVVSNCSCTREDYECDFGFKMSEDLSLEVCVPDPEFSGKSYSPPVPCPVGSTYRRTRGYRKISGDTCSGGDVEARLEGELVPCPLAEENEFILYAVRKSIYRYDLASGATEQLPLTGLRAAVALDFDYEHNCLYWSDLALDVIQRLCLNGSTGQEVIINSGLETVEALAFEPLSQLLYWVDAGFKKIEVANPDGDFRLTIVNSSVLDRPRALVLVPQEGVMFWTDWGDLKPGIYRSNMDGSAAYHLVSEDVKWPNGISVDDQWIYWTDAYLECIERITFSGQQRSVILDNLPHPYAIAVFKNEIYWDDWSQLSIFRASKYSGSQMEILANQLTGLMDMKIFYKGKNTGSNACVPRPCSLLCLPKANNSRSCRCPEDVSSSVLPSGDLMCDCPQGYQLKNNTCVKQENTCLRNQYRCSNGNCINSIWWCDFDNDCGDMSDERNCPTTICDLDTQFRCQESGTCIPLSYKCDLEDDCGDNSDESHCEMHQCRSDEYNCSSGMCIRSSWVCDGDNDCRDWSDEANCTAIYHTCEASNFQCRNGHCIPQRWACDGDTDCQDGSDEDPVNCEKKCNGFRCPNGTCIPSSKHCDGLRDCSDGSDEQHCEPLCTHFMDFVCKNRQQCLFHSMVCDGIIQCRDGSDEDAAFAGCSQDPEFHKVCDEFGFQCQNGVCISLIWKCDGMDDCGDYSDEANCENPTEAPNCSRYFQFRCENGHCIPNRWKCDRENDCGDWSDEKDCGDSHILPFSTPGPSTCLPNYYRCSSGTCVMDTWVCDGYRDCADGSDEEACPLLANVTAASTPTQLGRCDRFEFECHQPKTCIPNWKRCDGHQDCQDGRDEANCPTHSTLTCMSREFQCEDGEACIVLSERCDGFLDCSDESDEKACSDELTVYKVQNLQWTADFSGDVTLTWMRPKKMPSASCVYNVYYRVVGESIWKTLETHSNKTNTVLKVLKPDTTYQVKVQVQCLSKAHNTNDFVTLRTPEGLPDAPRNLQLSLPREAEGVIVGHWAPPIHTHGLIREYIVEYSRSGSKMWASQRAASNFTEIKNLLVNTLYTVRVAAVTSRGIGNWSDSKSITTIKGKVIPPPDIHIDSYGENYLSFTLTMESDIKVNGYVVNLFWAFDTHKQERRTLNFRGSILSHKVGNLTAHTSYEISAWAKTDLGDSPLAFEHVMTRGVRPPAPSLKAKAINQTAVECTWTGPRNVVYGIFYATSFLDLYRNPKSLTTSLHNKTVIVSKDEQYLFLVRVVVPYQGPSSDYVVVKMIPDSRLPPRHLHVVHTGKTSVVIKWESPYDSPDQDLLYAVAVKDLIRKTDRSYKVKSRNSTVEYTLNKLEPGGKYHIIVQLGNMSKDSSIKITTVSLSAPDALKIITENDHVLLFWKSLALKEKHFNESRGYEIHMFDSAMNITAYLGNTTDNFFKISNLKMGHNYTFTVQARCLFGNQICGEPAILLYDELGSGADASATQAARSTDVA", "experiment": "SPR, immobilized SorLA"}, "[3]": {"target": "SorLA extracellular domain (immobilized on the Biacore chip) (Homo sapiens) (UniProt Q92673)", "experiment": "SPR (Biacore), SorLA immobilized; series of 20, 50, 100 and 200 nM"}, "[4]": {"target": "SorLA extracellular domain (immobilized on the Biacore chip) (Homo sapiens) (UniProt Q92673)", "experiment": "SPR, GFRα1 over immobilized SorLA extracellular domain"}, "[5]": {"target": "T1, SorLA extracellular domain (immobilized on the Biacore chip) (Homo sapiens, UniProt Q92673 82-2137)", "T1 construct": "also called immobilized SorLA; LR11", "T1 sequence (Q92673 82-2137 limits assumed)": "as above", "experiment": "SPR, immobilized SorLA"}, "[6]": {"target": "T1, SorLA extracellular domain (immobilized …)", "experiment": "SPR (Biacore), SorLA immobilized; GST fusion protein, concentration not given", "source_text": "(A) fusion proteins between GST and the GDNF propeptide (GDNFpropep), the N-terminal 38 amino acids of mature GDNF (GDNFN-term), or the GDNF propeptide followed by the first 38 amino acids of mature GDNF (GDNFN-term propep) binding to immobilized SorLA. GST alone is included as negative control. (B) a peptide encompassing the first 38 amino acids of mature GDNF binds to SorLA in concentration-dependent manner."}, "[7]": {"target": "T1, SorLA extracellular domain (immobilized …)", "experiment": "SPR (Biacore), SorLA immobilized; SorLApro 10 uM by the legend, injected before GDNF in the inhibition experiment", "experimental": "(§1) (A) The domain structure of SorLA is depicted. (B) GDNF binds to immobilized SorLA in a concentration-dependent manner as shown by SPR. […] (C) SorLA binding is selective for GDNF and not the other GDNF family ligands, artemin, neuturin, and persephin. The neurotrophic factor concentrations used are 20 nM. (D) The interaction is mediated by the mature part of GDNF and not the GDNF propeptide (GDNFpro). Sensorgrams of 100 nM ligand concentration are shown. […] (G-H) Internalization of 50 nM GDNF by 293 cells or 293 cells stably expressing SorLA. Internalized GDNF (green) was visualized by immunofluorescense. (I) GDNF internalization was inhibited by excess neurotensin (NT, 20 μM)."}, "[8]": {"target": "T1, SorLA extracellular domain (immobilized …)", "experiment": "SPR, GDNF over immobilized SorLA; upper end of the range", "experimental": "as §1"}, "[9]": {"target": "T1, SorLA extracellular domain (immobilized …)", "experiment": "SPR, GDNF over immobilized SorLA; lower end of the range", "experimental": "as §1"}, "[10]": {"target": "T1, SorLA extracellular domain (immobilized …)", "experiment": "SPR, immobilized SorLA (title of Fig. 17)"}}, "note": "Where no end group is shown, it is not given here."}
{"molecule": "GFRα1 expressed on cells (stably transfected HEK293 cells) (from UniProt P56159 25-429) (receptor)", "values": [{"measurement": "mean Eapp%", "setting": "[1]", "result": 16, "unit": "%"}]}
{"molecule": "N-terminal truncated soluble GFRα1 variant lacking domain 1 (from UniProt P56159 145-429) (receptor)", "values": [{"measurement": "Kd", "setting": "[2]", "result": 120, "unit": "nM"}]}
{"molecule": "soluble full length GFRα1 (from UniProt P56159 25-429) (receptor)", "values": [{"measurement": "Kd", "setting": "[3]", "result": 10, "unit": "nM"}, {"measurement": "Kd", "setting": "[2]", "result": 12, "unit": "nM"}, {"measurement": "Kd", "setting": "[4]", "result": 6, "unit": "nM"}]}
{"molecule": "B1", "values": [{"measurement": "binding result", "setting": "[5]", "result": "no binding (tested: 20 nM)"}]}
{"molecule": "B2", "values": [{"measurement": "binding result", "setting": "[6]", "result": "binds"}]}
{"molecule": "B3", "values": [{"measurement": "binding result", "setting": "[5]", "result": "no binding (tested: 20 nM)"}]}
{"molecule": "B4", "values": [{"measurement": "binding result", "setting": "[5]", "result": "no binding (tested: 20 nM)"}]}
{"molecule": "B5", "values": [{"measurement": "binding result", "setting": "[7]", "result": "binds"}]}
{"molecule": "B6", "values": [{"measurement": "binding result", "setting": "[6]", "result": "no binding"}]}
{"molecule": "B7", "values": [{"measurement": "binding result", "setting": "[5]", "result": "no binding (tested: 100 nM)"}]}
{"molecule": "B8", "values": [{"measurement": "Kd", "setting": "[8]", "result": "≤ 8", "unit": "nM"}, {"measurement": "Kd", "setting": "[9]", "result": "≥ 3", "unit": "nM"}]}
{"molecule": "B9", "values": [{"measurement": "binding result", "setting": "[6]", "result": "binds"}]}
{"molecule": "B10", "values": [{"measurement": "binding result", "setting": "[10]", "result": "binds"}]}
